Experimental data reported in publication PMC4705995, “The Protein Interaction of RNA Helicase B (RhlB) and Polynucleotide Phosphorylase (PNPase) Contributes to the Homeostatic Control of Cysteine in Escherichia coli*” (The Journal of Biological Chemistry, 2015).
Changes are numbered by the printed parent chain. Names may count otherwise.

B1: FlagPNPase (Flag-tagged PNP) (enzyme)
chain: MLNPIVRKFQYGQHTVTLETGMMARQATAAVMVSMDDTAVFVTVVGQKKAKPGQDFFPLTVNYQERTYAAGRIPGSFFRREGRPSEGETLIARLIDRPIRPLFPEGFVNEVQVIATVVSVNPQVNPDIVAMIGASAALSLSGIPFNGPIGAARVGYINDQYVLNPTQDELKESKLDLVVAGTEAAVLMVESEAQLLSEDQMLGAVVFGHEQQQVVIQNINELVKEAGKPRWDWQPEPVNEALNARVAALAEARLSDAYRITDKQERYAQVDVIKSETIATLLAEDETLDENELGEILHAIEKNVVRSRVLAGEPRIDGREKDMIRGLDVRTGVLPRTHGSALFTRGETQALVTATLGTARDAQVLDELMGERTDTFLFHYNFPPYSVGETGMVGSPKRREIGHGRLAKRGVLAVMPDMDKFPYTVRVVSEITESNGSSSMASVCGASLALMDAGVPIKAAVAGIAMGLVKEGDNYVVLSDILGDEDHLGDMDFKVAGSRDGISALQMDIKIEGITKEIMQVALNQAKGARLHILGVMEQAINAPRGDISEFAPRIHTIKINPDKIKDVIGKGGSVIRALTEETGTTIEIEDDGTVKIAATDGEKAKHAIRRIEEITAEIEVGRVYTGKVTRIVDFGAFVAIGGGKEGLVHISQIADKRVEKVTDYLQMGQEVPVKVLEVDRQGRIRLSIKEATEQSQPAAAPEAPAAEQGE
B2: FlagRhlB^wt (Flag-tagged wild-type RhlB) (enzyme, Escherichia coli, UniProt P0A8J8 1-421, looked up)
chain: MSKTHLTEQKFSDFALHPKVVEALEKKGFHNCTPIQALALPLTLAGRDVAGQAQTGTGKTMAFLTSTFHYLLSHPAIADRKVNQPRALIMAPTRELAVQIHADAEPLAEATGLKLGLAYGGDGYDKQLKVLESGVDILIGTTGRLIDYAKQNHINLGAIQVVVLDEADRMYDLGFIKDIRWLFRRMPPANQRLNMLFSATLSYRVRELAFEQMNNAEYIEVEPEQKTGHRIKEELFYPSNEEKMRLLQTLIEEEWPDRAIIFANTKHRCEEIWGHLAADGHRVGLLTGDVAQKKRLRILDEFTRGDLDILVATDVAARGLHIPAVTHVFNYDLPDDCEDYVHRIGRTGRAGASGHSISLACEEYALNLPAIETYIGHSIPVSKYNPDALMTDLPKPLRLTRPRTGNGPRRTGAPRNRRRSG
notes: RNA helicase B (RhlB) of Escherichia coli; also called pFlagRhlB^wt
B3: FlagRhlB^P238L (Flag-tagged RhlB^P238L) (enzyme, Escherichia coli, UniProt P0A8J8 1-421, looked up)
chain: B2 chain with P238L
notes: RNA helicase B (RhlB) of Escherichia coli with P238L, introduced into pFlagRhlB by site-directed mutagenesis; also called pFlagRhlB^P238L

Experiments:
[1] = molecular target: T1, FlagRhlB^P238L (Flag-tagged RhlB^P238L) (Escherichia coli, UniProt P0A8J8 1-421, P238L); assay: SPR
T1 sequence: B2 chain with P238L

[2] = molecular target: T1, FlagRhlB^P238L (Flag-tagged RhlB^P238L); assay: SPR; remark: listed apart in the source
[3] = molecular target: B1; assay: SPR
[4] = molecular target: T2, FlagPNPase (Flag-tagged PNP) (Escherichia coli, UniProt P05055 1-711); assay: SPR; Biacore X; purified FlagPNPase immobilised on a CM5 chip by amine coupling; 0.75 to 24 uM FlagRhlB injected at 10 ul/min, 25 °C; settings: both partners purified
T2 construct: polynucleotide phosphorylase (PNPase) of Escherichia coli; also called pFlagPNP; polynucleotide phosphorylase
T2 sequence (looked up): B1 chain

[5] = molecular target: B1; assay: SPR

Row | Binder | Kd [1] | koff [2] | Kd [3] | kon [4] | koff [5]
1 | B1 | 6.64 µM | 0.00207 s⁻¹ | – | – | –
2 | B2 | – | – | 1670 nM | 1260 M⁻¹ s⁻¹ | 0.0021 s⁻¹
3 | B3 | – | – | – | 311 M⁻¹ s⁻¹ | –
